Measurements as given in the supplement of paper PMC6757056.
± gives the standard deviation of the averaged measurements.

B1: library; a variant is named by its letters at N, in order (parent)
chain: GCUGUCACCGAGAAACUGUGAAGUAUAUCUUAAACCUGGGCACUUAAAAGAUAUAUGGAGUUAGUAGUGCAACCUGCUCGGUCUGAUGAGUCCNNNNNNGGACGAAACAGC

How the values were obtained:
[1] = variants of: B1; assay: normalized RNA/DNA level without ligand (relative to sTRSVctl = 100) (log10 (% of sTRSVctl)); HEK293T; ligand: cyclic di-GMP (c-di-GMP-II aptamer); higher = less ribozyme self-cleavage, higher mRNA level; details: reporter: mCherry (pCS4076), ligand present: no
In short: (§1)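 HEK293T cells were transfected with library plasmids carrying ribozyme switches linked to an mCherry reporter, or an eGFP reporter in some ligand experiments, at 4 µg per well of a 6-well plate, with any ligand added 1 h beforehand. After 72 h, total RNA was extracted with EDTA, reverse-transcribed, amplified, barcoded and sequenced. RNA level was defined as RNA reads over DNA reads, normalized to a spiked-in non-cleaving sequence or to the top-ranked sequences. That value was multiplied by 100 and converted to log10, the top set was 25 sequences, and only sequences with ≥100 DNA reads were retained.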

[2] = variants of: B1; assay: normalized RNA/DNA level with ligand (relative to sTRSVctl = 100) (log10 (% of sTRSVctl)); HEK293T; ligand: cyclic di-GMP (c-di-GMP-II aptamer); ligand concentration (+) RNA-Seq: 1 mM; higher = less ribozyme self-cleavage, higher mRNA level; details: reporter: mCherry (pCS4076), ligand present: yes
In short: as §1

| Variant | normalized RNA/DNA level without ligand (log10) [1] | normalized RNA/DNA level with ligand (log10) [2] |
| --- | --- | --- |
| UCUCUA | 1.666 ± 0.0017 | 1.82 ± 0.12 |
| UCUCUC | 1.81 ± 0.069 | 1.9 ± 0.12 |
| UCUCUG | 1.718 ± 0.015 | 1.87 ± 0.14 |
| GCUCAC | 1.69 ± 0.034 | 1.83 ± 0.12 |
| GCUCAG | 1.79 ± 0.081 | 1.87 ± 0.15 |
| GCUCAA | 1.6 ± 0.023 | 1.79 ± 0.072 |
| GCUAAG | 1.49 ± 0.032 | 1.71 ± 0.1 |
| GCUAAA | 1.46 ± 0.085 | 1.67 ± 0.11 |
| GCUAAC | 1.49 ± 0.023 | 1.7 ± 0.15 |
| UCGUCC | 1.794 ± 0.01 | 1.9 ± 0.081 |
| UCGUCU | 1.72 ± 0.043 | 1.89 ± 0.094 |
| UCGUCG | 1.74 ± 0.03 | 1.88 ± 0.085 |
| UCGUCA | 1.644 ± 0.00093 | 1.82 ± 0.11 |
| UCUUAA | 1.64 ± 0.07 | 1.81 ± 0.044 |
| CCUACG | 1.7 ± 0.021 | 1.82 ± 0.13 |
| CCUACU | 1.581 ± 0.011 | 1.76 ± 0.12 |
| CCUACA | 1.53 ± 0.07 | 1.77 ± 0.044 |
| UCGGAC | 1.66 ± 0.029 | 1.8 ± 0.13 |
| UCGGGC | 1.83 ± 0.035 | 1.94 ± 0.086 |
| UCGGGG | 1.69 ± 0.06 | 1.83 ± 0.11 |
| UCGGGA | 1.46 ± 0.035 | 1.72 ± 0.11 |
| UCGGGU | 1.64 ± 0.09 | 1.79 ± 0.13 |
| ACUUAA | 1.49 ± 0.085 | 1.68 ± 0.13 |
| ACUAUU | 1.5 ± 0.047 | 1.7 ± 0.11 |

| Variant | normalized RNA/DNA level without ligand (log10) [1] | normalized RNA/DNA level with ligand (log10) [2] |
| --- | --- | --- |
| ACUAUC | 1.622 ± 0.012 | 1.79 ± 0.067 |
| ACUAUG | 1.586 ± 0.01 | 1.75 ± 0.087 |
| UCUAUG | 1.7 ± 0.034 | 1.85 ± 0.09 |
| UCUAUC | 1.698 ± 0.013 | 1.84 ± 0.086 |
| UCUAUU | 1.63 ± 0.034 | 1.78 ± 0.094 |
| UCUAUA | 1.56 ± 0.067 | 1.74 ± 0.12 |
| GCUCCG | 1.79 ± 0.028 | 1.92 ± 0.13 |
| GCUCCU | 1.71 ± 0.0058 | 1.85 ± 0.081 |
| GCUCCC | 1.71 ± 0.052 | 1.83 ± 0.17 |
| GCUCCA | 1.7142 ± 0.0002 | 1.83 ± 0.1 |
| CCUCGG | 1.838 ± 0.011 | 1.94 ± 0.025 |
| CCUCGU | 1.75 ± 0.057 | 1.86 ± 0.084 |
| CCUCGA | 1.71 ± 0.058 | 1.84 ± 0.093 |
| CCUCGC | 1.745 ± 0.0039 | 1.82 ± 0.14 |
| GCUCUC | 1.66 ± 0.026 | 1.81 ± 0.079 |
| GCUCUG | 1.629 ± 0.0036 | 1.8 ± 0.11 |
| CCGGCA | 1.7 ± 0.026 | 1.79 ± 0.12 |
| CCGGCC | 1.77 ± 0.04 | 1.86 ± 0.15 |
| CCGGCG | 1.69 ± 0.023 | 1.77 ± 0.05 |
| GCGGGU | 1.769 ± 0.0058 | 1.87 ± 0.12 |
| GCGGGC | 1.53 ± 0.028 | 1.69 ± 0.064 |
| GCGGGA | 1.62 ± 0.078 | 1.72 ± 0.068 |
| GCGGGG | 1.74 ± 0.035 | 1.83 ± 0.12 |
| CCUGGU | 1.672 ± 0.0096 | 1.83 ± 0.13 |

| Variant | normalized RNA/DNA level without ligand (log10) [1] | normalized RNA/DNA level with ligand (log10) [2] |
| --- | --- | --- |
| CCUGGA | 1.56 ± 0.052 | 1.76 ± 0.069 |
| CCUGGG | 1.72 ± 0.018 | 1.82 ± 0.18 |
| GCUGGG | 1.56 ± 0.029 | 1.71 ± 0.15 |
| GCUGGC | 1.57 ± 0.052 | 1.71 ± 0.14 |
| GCGUAA | 1.44 ± 0.091 | 1.61 ± 0.096 |
| GCGUAC | 1.34 ± 0.086 | 1.52 ± 0.12 |
| ACGGUG | 1.6002 ± 0.00028 | 1.74 ± 0.1 |
| ACGGUC | 1.637 ± 0.014 | 1.77 ± 0.17 |
| GCGUCC | 1.63 ± 0.055 | 1.81 ± 0.047 |
| GCGUCU | 1.67 ± 0.03 | 1.83 ± 0.1 |
| GCGUCA | 1.624 ± 0.0059 | 1.79 ± 0.15 |
| ACGUUG | 1.52 ± 0.083 | 1.74 ± 0.035 |
| ACGUUC | 1.61 ± 0.045 | 1.8 ± 0.1 |
| ACGUUA | 1.49 ± 0.045 | 1.65 ± 0.13 |
| UCUAAG | 1.64 ± 0.079 | 1.82 ± 0.072 |
| UCUAAC | 1.6887 ± 0.0016 | 1.83 ± 0.13 |
| ACUCGU | 1.76 ± 0.043 | 1.85 ± 0.021 |
| ACUCGG | 1.72 ± 0.074 | 1.76 ± 0.2 |
| ACUCGC | 1.73 ± 0.027 | 1.88 ± 0.15 |
| ACUCGA | 1.52 ± 0.065 | 1.73 ± 0.11 |
| ACUCAA | 1.52 ± 0.029 | 1.71 ± 0.099 |
| ACUCAU | 1.61 ± 0.022 | 1.81 ± 0.15 |
| ACUCAC | 1.699 ± 0.0095 | 1.81 ± 0.092 |
| GCGGUG | 1.6984 ± 0.00046 | 1.79 ± 0.13 |

| Variant | normalized RNA/DNA level without ligand (log10) [1] | normalized RNA/DNA level with ligand (log10) [2] |
| --- | --- | --- |
| GCGGUC | 1.29 ± 0.072 | 1.52 ± 0.09 |
| GCGGUA | 1.55 ± 0.046 | 1.69 ± 0.09 |
| CCGUGG | 1.53 ± 0.061 | 1.69 ± 0.14 |
| CCGUGU | 1.66 ± 0.039 | 1.86 ± 0.095 |
| CCGUGC | 1.58 ± 0.036 | 1.76 ± 0.086 |
| CCGUGA | 1.51 ± 0.067 | 1.7 ± 0.078 |
| CCUCUG | 1.63 ± 0.058 | 1.81 ± 0.1 |
| CCUCUC | 1.79 ± 0.053 | 1.89 ± 0.14 |
| CCUCUA | 1.427 ± 0.0066 | 1.68 ± 0.13 |
| CCUCUU | 1.63 ± 0.017 | 1.81 ± 0.15 |
| UCUACG | 1.74 ± 0.011 | 1.89 ± 0.092 |
| UCUACC | 1.798 ± 0.0078 | 1.88 ± 0.12 |
| UCUACA | 1.71 ± 0.025 | 1.86 ± 0.16 |
| UCUACU | 1.696 ± 0.012 | 1.82 ± 0.097 |
| UCGUGG | 1.738 ± 0.004 | 1.89 ± 0.11 |
| UCGUGC | 1.67 ± 0.017 | 1.86 ± 0.12 |
| UCGUGA | 1.47 ± 0.082 | 1.73 ± 0.09 |
| UCGUGU | 1.617 ± 0.0058 | 1.81 ± 0.1 |
| CCGUUU | 1.53 ± 0.058 | 1.71 ± 0.14 |
| CCGUUA | 1.36 ± 0.096 | 1.59 ± 0.15 |
| CCGUUC | 1.6 ± 0.047 | 1.78 ± 0.056 |
| UCUGCC | 1.8 ± 0.045 | 1.91 ± 0.064 |
| UCUGCG | 1.78 ± 0.035 | 1.85 ± 0.12 |
| UCUGCA | 1.748 ± 0.0085 | 1.85 ± 0.13 |

| Variant | normalized RNA/DNA level without ligand (log10) [1] | normalized RNA/DNA level with ligand (log10) [2] |
| --- | --- | --- |
| ACUGUU | 1.452 ± 0.011 | 1.67 ± 0.13 |
| ACUGUG | 1.6 ± 0.038 | 1.76 ± 0.11 |
| ACUGUC | 1.63 ± 0.036 | 1.8 ± 0.15 |
| ACGGGG | 1.693 ± 0.015 | 1.82 ± 0.1 |
| ACGGGU | 1.42 ± 0.083 | 1.58 ± 0.092 |
| ACGGGC | 1.7 ± 0.073 | 1.88 ± 0.1 |
| ACGUAC | 1.58 ± 0.053 | 1.78 ± 0.077 |
| ACGUAG | 1.55 ± 0.021 | 1.72 ± 0.14 |
| ACUAAC | 1.607 ± 0.015 | 1.76 ± 0.15 |
| ACGUCU | 1.55 ± 0.087 | 1.74 ± 0.085 |
| ACGUCG | 1.605 ± 0.011 | 1.81 ± 0.12 |
| ACGUCA | 1.61 ± 0.033 | 1.76 ± 0.13 |
| ACGUCC | 1.75 ± 0.042 | 1.93 ± 0.12 |
| CCUAUC | 1.63 ± 0.075 | 1.79 ± 0.077 |
| CCUAUG | 1.48 ± 0.038 | 1.7 ± 0.083 |
| CCUAUU | 1.56 ± 0.048 | 1.71 ± 0.097 |
| CCGGUC | 1.622 ± 0.0071 | 1.83 ± 0.073 |
| ACUCCA | 1.7 ± 0.02 | 1.84 ± 0.11 |
| ACUCCG | 1.746 ± 0.0086 | 1.83 ± 0.15 |
| ACUCCU | 1.72 ± 0.051 | 1.9 ± 0.1 |
